By IC50 is commonly meant the concentration needed to halve the response being measured. A lower IC50 goes with inhibition by little substance.

The labels stand for the following.
B1: gp100/pmel17 506-522 (peptide)
peptide: EGDAFELTVSCQGGLPK
notes: gp100/pmel17 melanoma-associated antigen, residues 506-522; also called gp100506-522; g506; source: synthetic peptide (FMOC chemistry, UPCI Peptide Synthesis Facility), >90% pure
B2: gp100/pmel17 283-304 (peptide)
peptide: PGPVTAQVVLQAAIPLTSCGSS
notes: gp100/pmel17 melanoma-associated antigen, residues 283-304; also called gp100283-304; g283; source: synthetic peptide (FMOC chemistry, UPCI Peptide Synthesis Facility), >90% pure
B3: gp100/pmel17 6-26 (peptide)
peptide: KRCLLHLAVIGALLAVGATKV
notes: gp100/pmel17 melanoma-associated antigen, residues 6-26; also called gp1006-26; g6; source: synthetic peptide (FMOC chemistry, UPCI Peptide Synthesis Facility), >90% pure
B4: gp100/pmel17 167-189 (peptide)
peptide: VSGLSIGTGRAMLGTHTMEVTVY
notes: gp100/pmel17 melanoma-associated antigen, residues 167-189; also called gp100167-179; g167; source: synthetic peptide (FMOC chemistry, UPCI Peptide Synthesis Facility), >90% pure
B5: gp100/pmel17 540-561 (peptide)
peptide: LCQPVLPSPACQLVLHQILKGG
notes: gp100/pmel17 melanoma-associated antigen, residues 540-561; also called gp100540-561; g540; source: synthetic peptide (FMOC chemistry, UPCI Peptide Synthesis Facility), >90% pure

The first assay deals with HLA-DRB1*0401 (human). In words: radioligand binding; solid-state competitive-binding assay (as in Southwood et al, 1998): the peptide blocks the binding of a radio-labeled reference peptide to purified HLA-DR4 complexes; IC50 in nM. Particulars: both partners purified.
As for B1, the IC50 came out at 3.21 µM. The molecule B2 came in with an IC50 of 2.89 µM.

For the next assay, the target named is HLA-DRB1*0404 (human). The description is as above. The following applies: both partners purified.
Take B3: the IC50 came out at 335 nM. On the same count and under the same terms, under B4 stands 372 nM; under B5, 614 nM; under B1, 3550 nM.
